Drawing on US5773001 (American Cyanamid Company, dated 1998), this text covers In vitro IC50 (3H-thymidine incorporation) and Rel. Affinity for 9 molecules.

For assay [1], the target named is CD33 antigen (human) (UniProt P20138).
For assay [2] the target is unchanged. Nature of the assay: competition with 125I-labelled native antibody on HEL 92.1.7 cells; IC50 (reference) / IC50 (sample).
Assay [3] has the same target. This is another data set of the same source.
The target is the same in assay [4]. This is another data set of the same source.
For assay [5] the target is unchanged. This is another data set of the same source.
Assay [6] has the same target. This is another data set of the same source.
For assay [7] the target is unchanged. This is another data set of the same source.
The target is the same in assay [8]. This is another data set of the same source.
For assay [9], the target named is polyepithelial mucin (PEM) antigen on cells (human) (UniProt P15941).
For assay [10] the target is unchanged. Nature of the assay: competition with 125I-labelled native antibody on A2780DDP cells; IC50 (reference) / IC50 (sample).
The target of assay [11] is T1, glycoprotein antigen present on colon cancer cells, recognized by A33 (Homo sapiens (Human)) (UniProt Q99795).
T1 sequence: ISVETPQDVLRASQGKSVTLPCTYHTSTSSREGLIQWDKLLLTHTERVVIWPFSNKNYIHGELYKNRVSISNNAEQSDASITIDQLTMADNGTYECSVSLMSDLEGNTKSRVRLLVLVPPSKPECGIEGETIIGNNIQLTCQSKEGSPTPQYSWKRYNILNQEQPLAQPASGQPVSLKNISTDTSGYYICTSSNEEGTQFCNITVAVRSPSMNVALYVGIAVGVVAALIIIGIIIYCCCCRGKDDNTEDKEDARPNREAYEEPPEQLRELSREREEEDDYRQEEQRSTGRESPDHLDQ

In assay [12] the target is T1, glycoprotein antigen present on colon cancer cells, recognized by A33 (Homo sapiens (Human)). Nature of the assay: competition with 125I-labelled native antibody on COLO 205 cells; IC50 (reference) / IC50 (sample).

Where two headings read alike, the source gives them in different places. Some results are limits rather than exact numbers.

Chain of polyepithelial mucin (PEM) antigen on cells (human) (P15941 24-1255): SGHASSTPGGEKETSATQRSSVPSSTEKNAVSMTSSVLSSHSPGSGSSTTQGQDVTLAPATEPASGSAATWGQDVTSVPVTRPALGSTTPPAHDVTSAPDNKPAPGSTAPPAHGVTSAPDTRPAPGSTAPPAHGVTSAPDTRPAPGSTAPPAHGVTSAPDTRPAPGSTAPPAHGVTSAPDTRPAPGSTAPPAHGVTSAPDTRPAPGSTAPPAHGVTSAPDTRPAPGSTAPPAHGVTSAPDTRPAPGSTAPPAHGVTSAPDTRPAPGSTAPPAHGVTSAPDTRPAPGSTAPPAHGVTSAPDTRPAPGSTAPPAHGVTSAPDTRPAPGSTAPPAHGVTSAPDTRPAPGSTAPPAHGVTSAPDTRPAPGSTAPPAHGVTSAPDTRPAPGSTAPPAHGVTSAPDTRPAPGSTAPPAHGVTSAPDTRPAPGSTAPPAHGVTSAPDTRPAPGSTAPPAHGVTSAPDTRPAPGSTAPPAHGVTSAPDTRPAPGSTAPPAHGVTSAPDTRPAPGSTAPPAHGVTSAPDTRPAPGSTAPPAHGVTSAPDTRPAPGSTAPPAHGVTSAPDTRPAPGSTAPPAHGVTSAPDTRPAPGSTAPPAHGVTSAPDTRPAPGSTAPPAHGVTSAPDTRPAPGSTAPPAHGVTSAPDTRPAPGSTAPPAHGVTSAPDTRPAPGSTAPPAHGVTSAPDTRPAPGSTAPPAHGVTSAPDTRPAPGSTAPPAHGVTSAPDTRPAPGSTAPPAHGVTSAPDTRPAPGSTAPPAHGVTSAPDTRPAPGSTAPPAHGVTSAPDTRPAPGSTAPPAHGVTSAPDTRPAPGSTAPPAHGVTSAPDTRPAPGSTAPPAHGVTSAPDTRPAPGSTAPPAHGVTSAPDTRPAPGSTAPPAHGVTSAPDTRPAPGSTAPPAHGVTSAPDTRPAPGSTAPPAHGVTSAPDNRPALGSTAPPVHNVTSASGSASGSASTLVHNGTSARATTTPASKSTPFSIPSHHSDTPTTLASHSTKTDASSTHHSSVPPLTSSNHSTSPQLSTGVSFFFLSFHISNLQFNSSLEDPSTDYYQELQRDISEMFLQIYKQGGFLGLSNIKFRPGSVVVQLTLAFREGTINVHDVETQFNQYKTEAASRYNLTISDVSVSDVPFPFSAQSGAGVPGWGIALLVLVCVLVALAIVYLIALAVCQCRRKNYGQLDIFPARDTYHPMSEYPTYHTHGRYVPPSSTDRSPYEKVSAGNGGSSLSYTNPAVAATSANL

B1: Conjugate of 11-(4-acetylphenoxy)undecanoic acid (23) condensed with Calicheamicin N-acetyl gamma dimethyl hydrazide and h-P67.6 (antibody, V domains shown)
VH: EVQLVQSGAEVKKPGSSVKVSCKASGYTITDSNIHWVRQAPGQSLEWIGYIYPYNGGTDYNQKFKNRATLTVDNPTNTAYMELSSLRSEDTDFYYCVNGNPWLAYWGQGTLVTVSS
VL: DIQLTQSPSTLSASVGDRVTITCRASESLDNYGIRFLTWFQQKPGKAPKLLMYAASNQGSGVPSRFSGSGSGTEFTLTISSLQPDDFATYYCQQTKEVPWSFGQGTKVEVKR
modifications: drug-linker amide on lysine side chains, sites not stated; drug-linker amide on lysine side chains, sites not stated
For the molecule B1, the In vitro IC50 (3H-thymidine incorporation) in the assay with CD33 antigen (human) [1] was determined as 0.43 ng/mL. Besides, the Rel. Affinity with CD33 antigen (human) [2] came out at 0.8.

B2: Conjugate of 4-(2-Acetylphenoxy)butanoic acid (31) condensed with Calicheamicin N-acetyl gamma dimethyl hydrazide and h-P67.6 (antibody, V domains shown)
VH: EVQLVQSGAEVKKPGSSVKVSCKASGYTITDSNIHWVRQAPGQSLEWIGYIYPYNGGTDYNQKFKNRATLTVDNPTNTAYMELSSLRSEDTDFYYCVNGNPWLAYWGQGTLVTVSS
VL: DIQLTQSPSTLSASVGDRVTITCRASESLDNYGIRFLTWFQQKPGKAPKLLMYAASNQGSGVPSRFSGSGSGTEFTLTISSLQPDDFATYYCQQTKEVPWSFGQGTKVEVKR
modifications: drug-linker amide on lysine side chains, sites not stated; drug-linker amide on lysine side chains, sites not stated
As for B2, the In vitro IC50 (3H-thymidine incorporation) in the assay with CD33 antigen (human) [3] is < 0.005 ng/mL. In the assay with CD33 antigen (human) [2], the Rel. Affinity was 0.95.

B3: Conjugate of 4-(4-formyl-2-nitrophenoxy)butanoic acid (27) condensed with Calicheamicin N-acetyl gamma dimethyl hydrazide and h-P67.6 (antibody, V domains shown)
VH: EVQLVQSGAEVKKPGSSVKVSCKASGYTITDSNIHWVRQAPGQSLEWIGYIYPYNGGTDYNQKFKNRATLTVDNPTNTAYMELSSLRSEDTDFYYCVNGNPWLAYWGQGTLVTVSS
VL: DIQLTQSPSTLSASVGDRVTITCRASESLDNYGIRFLTWFQQKPGKAPKLLMYAASNQGSGVPSRFSGSGSGTEFTLTISSLQPDDFATYYCQQTKEVPWSFGQGTKVEVKR
modifications: drug-linker amide on lysine side chains, sites not stated; drug-linker amide on lysine side chains, sites not stated
In turn, B3 showed an In vitro IC50 (3H-thymidine incorporation) with CD33 antigen (human) [4] of 0.023 ng/mL. This molecule also showed a Rel. Affinity with CD33 antigen (human) [2] of 1.3.

B4: Conjugate of 4-(2-chloro-4-formylphenoxy)butanoic acid (25) condensed with Calicheamicin N-acetyl gamma dimethyl hydrazide and h-P67.6 (antibody, V domains shown)
VH: EVQLVQSGAEVKKPGSSVKVSCKASGYTITDSNIHWVRQAPGQSLEWIGYIYPYNGGTDYNQKFKNRATLTVDNPTNTAYMELSSLRSEDTDFYYCVNGNPWLAYWGQGTLVTVSS
VL: DIQLTQSPSTLSASVGDRVTITCRASESLDNYGIRFLTWFQQKPGKAPKLLMYAASNQGSGVPSRFSGSGSGTEFTLTISSLQPDDFATYYCQQTKEVPWSFGQGTKVEVKR
modifications: drug-linker amide on lysine side chains, sites not stated; drug-linker amide on lysine side chains, sites not stated
Molecule B4 yielded an In vitro IC50 (3H-thymidine incorporation) with CD33 antigen (human) [5] of 0.0071 ng/mL. In addition, the Rel. Affinity with CD33 antigen (human) [2] was determined as 0.31.

B5: Conjugate of 4-2-(4-acetylphenyl)amino!methyl!-6-methoxyphenoxy!butanoic acid (28) condensed with Calicheamicin N-acetyl gamma dimethyl hydrazide and h-P67.6 (antibody, V domains shown)
VH: EVQLVQSGAEVKKPGSSVKVSCKASGYTITDSNIHWVRQAPGQSLEWIGYIYPYNGGTDYNQKFKNRATLTVDNPTNTAYMELSSLRSEDTDFYYCVNGNPWLAYWGQGTLVTVSS
VL: DIQLTQSPSTLSASVGDRVTITCRASESLDNYGIRFLTWFQQKPGKAPKLLMYAASNQGSGVPSRFSGSGSGTEFTLTISSLQPDDFATYYCQQTKEVPWSFGQGTKVEVKR
modifications: drug-linker amide on lysine side chains, sites not stated; drug-linker amide on lysine side chains, sites not stated
Turning to B5, in the assay with CD33 antigen (human) [6], the In vitro IC50 (3H-thymidine incorporation) is < 0.005 ng/mL. The Rel. Affinity in the assay with CD33 antigen (human) [2] worked out at 0.85.

B6: Conjugate of 4-(4-acetyl-3-fluorophenoxy)butanoic acid (30) condensed with Calicheamicin N-acetyl gamma dimethyl hydrazide and h-P67.6 (antibody, V domains shown)
VH: EVQLVQSGAEVKKPGSSVKVSCKASGYTITDSNIHWVRQAPGQSLEWIGYIYPYNGGTDYNQKFKNRATLTVDNPTNTAYMELSSLRSEDTDFYYCVNGNPWLAYWGQGTLVTVSS
VL: DIQLTQSPSTLSASVGDRVTITCRASESLDNYGIRFLTWFQQKPGKAPKLLMYAASNQGSGVPSRFSGSGSGTEFTLTISSLQPDDFATYYCQQTKEVPWSFGQGTKVEVKR
modifications: drug-linker amide on lysine side chains, sites not stated; drug-linker amide on lysine side chains, sites not stated
The molecule B6 displayed an In vitro IC50 (3H-thymidine incorporation) in the assay with CD33 antigen (human) [7] of 0.005 ng/mL. The molecule also registered a Rel. Affinity in the assay with CD33 antigen (human) [2] of 1.01.

B7: Conjugate of 4-acetylphenylacetic acid (33) condensed with Calicheamicin N-acetyl gamma dimethyl hydrazide and h-P67.6 (antibody, V domains shown)
VH: EVQLVQSGAEVKKPGSSVKVSCKASGYTITDSNIHWVRQAPGQSLEWIGYIYPYNGGTDYNQKFKNRATLTVDNPTNTAYMELSSLRSEDTDFYYCVNGNPWLAYWGQGTLVTVSS
VL: DIQLTQSPSTLSASVGDRVTITCRASESLDNYGIRFLTWFQQKPGKAPKLLMYAASNQGSGVPSRFSGSGSGTEFTLTISSLQPDDFATYYCQQTKEVPWSFGQGTKVEVKR
modifications: drug-linker amide on lysine side chains, sites not stated; drug-linker amide on lysine side chains, sites not stated
Turning to B7, in the assay with CD33 antigen (human) [8], the In vitro IC50 (3H-thymidine incorporation) is < 0.005 ng/mL. Further, the Rel. Affinity in the assay with CD33 antigen (human) [2] was found to be 0.91.

B8: Conjugate of 4-formylphenoxyacetic acid (1) condensed with Calicheamicin N-acetyl gamma dimethyl hydrazide and m-CT-M-01 (antibody, V domains shown)
VH: QIQLQQSGPELVKPGASVKISCKASGYTFTDYYINWMKQKPGQGLEWIGWIDPGSGNTKYNEKFKGKATLTVDTSSSTAYMQLSSLTSEDTAVYFCAREKTTYYYAMDYWGQGTSVTVSA
VL: DIVMTQAAPSVPVTPGESLSISCRSSKSLLHSNGDTFLYWFLQRPGQSPQLLIYRMSNLASGVPDRFSGSGSGTAFTLRVSRVEAEDVGVYYCMQHLEYPFTFGAGTKLELKR
modifications: drug-linker amide on lysine side chains, sites not stated; drug-linker amide on lysine side chains, sites not stated
B8 registered an In vitro IC50 (3H-thymidine incorporation) in assay [9] of 1.5 ng/mL. In assay [10], this molecule registered a Rel. Affinity of 0.84.

B9: Conjugate of 4-(4-acetylphenoxy)butanoic acid (7) condensed with calicheamicin N-acetyl gamma dimethyl hydrazide and m-A33 (antibody, V domains shown)
VH: EVKLVESGGGLVKPGGSLKLSCAASGFAFSTYDMSWVRQTPEKRLEWVATISSGGSYTYYLDSVKGRFTISRDSPRNTLYLQMSSLRSEDTALYYCAPTTVVPFAYWGQGTLVTVSA
VL: DIVMTQSQKFMSTSVGDRVSITCKASQNVRTVVAWYQQKPGQSPKTLIYLASNRHTGVPDRFTGSGSGTDFTLTISNVQSEDLADYFCLQHWSYPLTFGSGTKLEVKR
modifications: drug-linker amide on lysine side chains, sites not stated; drug-linker amide on lysine side chains, sites not stated
In assay [11], B9 came in with an In vitro IC50 (3H-thymidine incorporation) of 3.32 ng/mL. The same molecule gave a Rel. Affinity in assay [12] of 0.68.
